As usually defined, the Kd is the concentration at which binding is half-saturated. Low values mean higher affinity, high ones lower affinity.

The test system of data set [1] is ScParB (Streptomyces coelicolor). The data set is described as follows: BLI. To be noted: no CTP, BLI: 100 mM Tris-HCl pH 8.0, 100 mM NaCl, 1 mM MgCl2, 0.005% Tween 20, 30 C, EMSA: 100 mM Tris-HCl pH 8.0, 100 mM NaCl, 10% glycerol, 1 mM DTT, 1 mM EDTA ….
The target in data set [2] is T1, ScParB (S. coelicolor ParB) (Streptomyces coelicolor, UniProt Q9RFM2).
T1 construct: full-length; N-terminal GST fusion from pGEX-6P-1_parB, GST removed with PreScission protease; expressed in E. coli BL21 pLysS; dimer
T1 sequence (Q9RFM2 entry or part of it): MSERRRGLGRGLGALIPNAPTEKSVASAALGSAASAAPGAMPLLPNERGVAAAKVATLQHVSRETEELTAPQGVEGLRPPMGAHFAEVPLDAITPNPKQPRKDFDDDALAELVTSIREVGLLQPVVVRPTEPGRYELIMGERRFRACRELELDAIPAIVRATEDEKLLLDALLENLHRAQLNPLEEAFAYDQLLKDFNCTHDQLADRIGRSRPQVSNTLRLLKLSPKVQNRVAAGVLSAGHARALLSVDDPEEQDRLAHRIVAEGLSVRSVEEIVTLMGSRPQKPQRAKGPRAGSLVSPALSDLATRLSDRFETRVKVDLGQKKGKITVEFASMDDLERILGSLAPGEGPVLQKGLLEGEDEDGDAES
The experiment in a line: TNP-CTP fluorescence enhancement at […] nm. Type of data set: binding. Conditions: 1 μM protein, 5 μM TNP-CTP, no DNA, 1 mM MgCl2, pH 8.0, room temperature; labelled compound.

Data set [3] concerns the molecule itself. The experiment in a line: cross-linking; glutaraldehyde (0.03%, 0.06% or 0.12%), 4 μM ScParB variant, 100 mM Tris-HCl pH 8.0, 100 mM NaCl, 1 mM MgCl2, 0.005% Tween 20, 30°C, 30 min; optionally 4 mM CTP or 4 μM 34-bp parS dsDNA; SDS-PAGE, Coomassie, percent of dimer and HMW complex of the lane's total signal.
Data set [4] deals with the molecule itself. The data set is described as follows: two-hybrid; bacterial two-hybrid (BACTH): pUT18C and pKT25 derivatives cotransformed into E. coli BTH101; blue colonies on LB agar with X-gal and 0.5 mM IPTG, 30°C, and β-galactosidase activity (Miller units).

Regarding 300-bp parS, one-end biotin, the equilibrium dissociation constant (Kd) in data set [1] is 271 nM.
Turning to 300-bp parS, two-end biotin, in data set [1] (Discussion prints 176), the dissociation constant (Kd) worked out at 167 nM.
For `Nc1ccn([C@@H]2O[C@H](COP(=O)(O)OP(=O)(O)OP(=O)(O)O)[C@H]3OC4(O[C@H]32)C([N+](=O)[O-])=CC(=[N+]([O-])O)C=C4[N+](=O)[O-])c(=O)n1` (some centres unmarked) [TNP-CTP, 2′,3′-O-trinitrophenyl-cytidine-5′-triphosphate], in data set [2], the “relative fluorescence (RU)” value amounted to 1.16 ± 0.06 RU.

B1: ScParB^R142A, purified recombinant (natural protein)
chain: MSERRRGLGRGLGALIPNAPTEKSVASAALGSAASAAPGAMPLLPNERGVAAAKVATLQHVSRETEELTAPQGVEGLRPPMGAHFAEVPLDAITPNPKQPRKDFDDDALAELVTSIREVGLLQPVVVRPTEPGRYELIMGEARFRACRELELDAIPAIVRATEDEKLLLDALLENLHRAQLNPLEEAFAYDQLLKDFNCTHDQLADRIGRSRPQVSNTLRLLKLSPKVQNRVAAGVLSAGHARALLSVDDPEEQDRLAHRIVAEGLSVRSVEEIVTLMGSRPQKPQRAKGPRAGSLVSPALSDLATRLSDRFETRVKVDLGQKKGKITVEFASMDDLERILGSLAPGEGPVLQKGLLEGEDEDGDAES
notes: source: E. coli BL21 (DE) pLysS, purified (Glutathione Sepharose 4B, cleaved with PreScission protease); not shown: GST, N-terminal, cleaved
As for B1, in data set [3], the “fold enhancement of dimerization against wild-type ScParB” value is at most 3 fold.

B2: ScParB^R142A, bacterial two-hybrid fusion (natural protein)
chain: B1 chain
notes: also called R142A-substituted variant; source: bacterial two-hybrid fusion (pUT18C and pKT25 derivatives), in E. coli BTH101
Consider B2, for which the “fold enhancement of dimerization against wild-type ScParB” value in data set [4] is at most 3 fold.

The values are drawn from publication PMC12207404, “Significance of the CTP-binding motif for the interactions of S. coelicolor ParB with DNA, chromosome segregation, and sporogenic hyphal growth” (Nucleic Acids Research, 2025).
